Test results: patent publication US20250011363A1, “OPTIMIZED SHORTENED PEPTIDE THAT BINDS TO ACETYLCHOLINE RECEPTOR, AND USE THEREOF” (SKINMED CO., LTD., priority 2021, published 2025)

B1: 6mer-1-1186 (peptide)
peptide: KKNNAK
B2: 6mer-1-1178 (peptide)
peptide: RKKMAK
B3: 6mer-1-1161 (peptide)
peptide: KRHWVK
B4: 6mer-1-1151 (peptide)
peptide: KKKEAK
B5: 6mer-1-1155 (peptide)
peptide: RKKEKR
B6: 6mer-1-1171 (peptide)
peptide: RKIAFK
B7: 6mer-1-1133 (peptide)
peptide: KKPNIK
B8: 6mer-1-1141 (peptide)
peptide: KRNMHK
B9: 6mer-1-1187 (peptide)
peptide: RRHAHK
B10: 6mer-1-1174 (peptide)
peptide: RKDAIR
B11: 6mer-1-1147 (peptide)
peptide: RKAPHR
B12: 6mer-1-1168 (peptide)
peptide: KKEKFR
B13: 6mer-1-1167 (peptide)
peptide: KRHMMK
B14: 6mer-1-1148 (peptide)
peptide: RRCSHR
B15: 6mer-1-1183 (peptide)
peptide: RKIHNK
B16: 6mer-1-1162 (peptide)
peptide: KKCDHR
B17: 6mer-1-1136 (peptide)
peptide: KKIEIK
B18: 6mer-1-1159 (peptide)
peptide: RRAWPR
B19: 6mer-1-1140 (peptide)
peptide: KRATMK
B20: 6mer-1-1163 (peptide)
peptide: RKCAFK
B21: 6mer-1-1181 (peptide)
peptide: RRMDAK
B22: 6mer-1-1179 (peptide)
peptide: KRMTPR
B23: 6mer-1-1165 (peptide)
peptide: RRATWR
B24: 6mer-1-1135 (peptide)
peptide: KKHTER
B25: 6mer-1-1169 (peptide)
peptide: RKMDIR
B26: 6mer-1-1144 (peptide)
peptide: KKCMGR
B27: 6mer-1-1139 (peptide)
peptide: KKMENR
B28: 6mer-1-1153 (peptide)
peptide: RKHNKK
B29: 6mer-1-1173 (peptide)
peptide: KKIPMK
B30: 6mer-1-1145 (peptide)
peptide: RRDCKK
B31: 6mer-1-1156 (peptide)
peptide: KRYTVR
B32: 6mer-1-1142 (peptide)
peptide: KKETPR
B33: 6mer-1-1176 (peptide)
peptide: KKADHK
B34: 6mer-1-1143 (peptide)
peptide: KRHEFK
B35: 6mer-1-1188 (peptide)
peptide: RRMNER
B36: 6mer-1-1177 (peptide)
peptide: RRHTMR
B37: 6mer-1-1164 (peptide)
peptide: KKHHAK
B38: 6mer-1-1184 (peptide)
peptide: RRDTVK
B39: 6mer-1-1157 (peptide)
peptide: RKESVR
B40: 6mer-1-1132 (peptide)
peptide: RRKAER
B41: 6mer-1-1137 (peptide)
peptide: KRFTDK
B42: 6mer-1-1172 (peptide)
peptide: RRFNFR
B43: 6mer-1-1158 (peptide)
peptide: RKPMMK
B44: 6mer-1-1189 (peptide)
peptide: KKCHWR
B45: 6mer-1-1138 (peptide)
peptide: KRDCFR
B46: 6mer-1-1175 (peptide)
peptide: RKTWEK
B47: 6mer-1-1146 (peptide)
peptide: KKMMPK
B48: 6mer-1-1170 (peptide)
peptide: KKYNPK
B49: 6mer-1-1150 (peptide)
peptide: KRKWWR
B50: 6mer-1-1182 (peptide)
peptide: KKTCHR
B51: 6mer-1-1149 (peptide)
peptide: RKMTPK
B52: 6mer-1-1152 (peptide)
peptide: RKYKEK
B53: 6mer-1-1134 (peptide)
peptide: KRMSWK
B54: 6mer-1-1166 (peptide)
peptide: KKEEKR
B55: 6mer-1-1160 (peptide)
peptide: RRDWAK
B56: 6mer-1-1154 (peptide)
peptide: RKCEKR
B57: 6mer-1-1180 (peptide)
peptide: KRPPPK
B58: 6mer-1-1185 (peptide)
peptide: KKEMMK
B59: 6mer-1-589 (peptide)
peptide: KKLQQK
B60: 6mer-1-590 (peptide)
peptide: RKGVTK
B61: 6mer-1-599 (peptide)
peptide: KKLYQR
B62: 6mer-1-600 (peptide)
peptide: KRGYCR
B63: 6mer-1-595 (peptide)
peptide: KKSLCK
B64: 6mer-1-597 (peptide)
peptide: KRGFYK
B65: 6mer-1-582 (peptide)
peptide: KRWFLK
B66: 6mer-1-587 (peptide)
peptide: KKQLLK
B67: 6mer-1-594 (peptide)
peptide: KRQLQR
B68: 6mer-1-596 (peptide)
peptide: RKGVLR
B69: 6mer-1-591 (peptide)
peptide: KKRLYR
B70: 6mer-1-592 (peptide)
peptide: RRWLSK
B71: 6mer-1-598 (peptide)
peptide: RKWLSK
B72: 6mer-1-585 (peptide)
peptide: RKSRQK
B73: 6mer-1-588 (peptide)
peptide: RRLVRK
B74: 6mer-1-593 (peptide)
peptide: RKVYRK
B75: 6mer-1-584 (peptide)
peptide: RKQVSK
B76: 6mer-1-586 (peptide)
peptide: KRVICK
B77: 6mer-1-583 (peptide)
peptide: KKVLYK
B78: 6mer-1-581 (peptide)
peptide: KRGLYK

Target: acetylcholine receptor
Test: SPR, AchR on CM5 chip, peptide 10 µM

Binder	Binding affinity (RU)
B1	37
B2	29
B3	40
B4	34
B5	28
B6	40
B7	24
B8	40
B9	26
B10	30
B11	35
B12	40
B13	42
B14	31
B15	35
B16	41
B17	34
B18	39
B19	43
B20	21

Binder	Binding affinity (RU)
B21	21
B22	40
B23	29
B24	26
B25	32
B26	25
B27	36
B28	23
B29	26
B30	40
B31	37
B32	24
B33	21
B34	32
B35	41
B36	21
B37	41
B38	30
B39	36
B40	31

Binder	Binding affinity (RU)
B41	33
B42	23
B43	33
B44	40
B45	21
B46	23
B47	34
B48	25
B49	34
B50	35
B51	30
B52	23
B53	22
B54	22
B55	29
B56	41
B57	34
B58	29

Target: acetylcholine receptor
Test: SPR, acetylcholine receptor on CM5 chip, peptide at 10 uM

Binder	Binding affinity (RU)
B59	139
B60	142
B61	124
B62	139
B63	121
B64	148
B65	137
B66	148
B67	121
B68	148
B69	147
B70	135
B71	142
B72	144
B73	153
B74	148
B75	127
B76	136
B77	139
B78	139
